Experimental data from patent publication US20250076311A1 (Chugai, published 2025).

Key:
[1] = molecular target: T1, cynomolgus monkey FcγRIIa3 extracellular domain with C-terminal His-tag (cynomolgus monkey); assay: SPR (BIACORE), antibody captured, FcgR analyte
T1 construct: also called cyno FcgRIIa3; cynoFcγRIIa3; not shown: His-tag added to the C-terminus
T1 chain: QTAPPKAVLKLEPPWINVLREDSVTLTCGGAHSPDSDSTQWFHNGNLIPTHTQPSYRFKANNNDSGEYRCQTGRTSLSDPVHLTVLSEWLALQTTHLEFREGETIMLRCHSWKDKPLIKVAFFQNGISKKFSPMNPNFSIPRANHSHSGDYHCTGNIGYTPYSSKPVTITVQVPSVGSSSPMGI
Description: (§1) The kinetic analysis of interactions between these antibodies and FcγR was carried out using BIACORE® T200 or BIACORE® 4000 (GE Healthcare). HBS-EP+ (GE Healthcare) was used as the running buffer, and the measurement temperature was set to 25° C. […] After the measurement, the antibody captured on the chip was washed off by allowing reaction with 10 mM glycine-HCl, pH1.5 and 25 mM NaOH so that the chip was regenerated and used repeatedly. The sensorgrams obtained as measurement results were analyzed by the 1:1 Langmuir binding model using the BIACORE® Evaluation Software to calculate the binding rate constant ka (L/mol/s) and dissociation rate constant kd (1/s), and the dissociation constant KD (mol/L) was calculated from these values. […] Regarding such interactions, KD values were calculated using the following 1:1 binding model described in BIACORE® T100 Software Handbook BR1006-48 Edition AE.

[2] = molecular target: T2, cynomolgus monkey FcγRIIa1 extracellular domain, His-tagged (cynomolgus monkey); assay: SPR (Biacore), 25C, FcgR bound per antibody captured
T2 construct: also called cyno FcgRIIa1
T2 chain: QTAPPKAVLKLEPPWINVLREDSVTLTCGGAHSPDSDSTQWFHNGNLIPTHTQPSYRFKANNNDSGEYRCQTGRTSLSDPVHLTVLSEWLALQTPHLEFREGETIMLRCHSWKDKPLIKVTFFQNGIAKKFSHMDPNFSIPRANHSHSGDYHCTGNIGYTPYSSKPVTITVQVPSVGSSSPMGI
Description: (§2) In the next step, cross-reactivity of these substitutions to cynoFcγRs was evaluated.
(§3) The value of the amount of FcγR binding was obtained by dividing the amount of FcγR bound by the amount of each antibody captured.

[3] = molecular target: T3, cynomolgus monkey FcγRIIa2 extracellular domain, His-tagged (cynomolgus monkey); assay: as above
T3 construct: also called cyno FcgRIIa2
T3 chain: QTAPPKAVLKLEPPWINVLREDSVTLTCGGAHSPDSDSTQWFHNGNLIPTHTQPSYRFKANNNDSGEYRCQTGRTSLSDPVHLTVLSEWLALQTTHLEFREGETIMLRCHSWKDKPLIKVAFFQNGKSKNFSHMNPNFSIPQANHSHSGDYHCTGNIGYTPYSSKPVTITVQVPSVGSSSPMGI
Description: as §2, §3

[4] = molecular target: T4, cynomolgus monkey FcγRIIa3 extracellular domain, His-tagged (cynomolgus monkey); assay: as above
T4 construct: also called cyno FcgRIIa3
T4 chain: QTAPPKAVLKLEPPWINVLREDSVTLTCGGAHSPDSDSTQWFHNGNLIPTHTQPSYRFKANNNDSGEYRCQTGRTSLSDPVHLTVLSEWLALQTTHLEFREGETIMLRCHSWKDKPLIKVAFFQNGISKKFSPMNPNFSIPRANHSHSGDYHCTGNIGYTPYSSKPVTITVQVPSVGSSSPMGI
Description: as §2, §3

[5] = molecular target: T5, cynomolgus monkey FcγRIIb extracellular domain, His-tagged (cynomolgus monkey); assay: as above
T5 construct: also called cyno FcgRIIb
T5 chain: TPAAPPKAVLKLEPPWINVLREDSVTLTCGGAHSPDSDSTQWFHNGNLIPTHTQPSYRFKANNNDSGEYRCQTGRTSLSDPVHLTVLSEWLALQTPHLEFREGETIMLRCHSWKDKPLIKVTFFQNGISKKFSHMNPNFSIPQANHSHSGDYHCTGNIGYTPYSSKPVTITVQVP
Description: as §2, §3

[6] = molecular target: T6, cynomolgus monkey FcγRIIIaS extracellular domain, His-tagged (cynomolgus monkey, UniProt Q8SPW2 21-206 at identity 1.00)); assay: as above
T6 construct: also called cyno FcgRIIIaS
T6 chain: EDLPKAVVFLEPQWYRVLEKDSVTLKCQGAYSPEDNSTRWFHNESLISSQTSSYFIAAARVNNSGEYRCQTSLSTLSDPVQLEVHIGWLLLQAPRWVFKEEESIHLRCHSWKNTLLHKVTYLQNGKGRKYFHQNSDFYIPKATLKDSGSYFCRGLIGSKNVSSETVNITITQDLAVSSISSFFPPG
Description: as §2, §3

[7] = molecular target: T7, human FcγRIIb extracellular domain with C-terminal His-tag (human, UniProt P31994 43-217); assay: SPR Biacore, antibody captured, FcgR analyte
T7 construct: also called human FcgRIIb; not shown: His-tag added to C-terminus
T7 sequence: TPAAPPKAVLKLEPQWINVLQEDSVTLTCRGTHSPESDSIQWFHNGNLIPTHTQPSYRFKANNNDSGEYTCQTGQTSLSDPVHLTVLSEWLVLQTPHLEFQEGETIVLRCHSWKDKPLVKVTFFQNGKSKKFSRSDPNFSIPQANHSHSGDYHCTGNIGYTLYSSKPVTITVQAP
Description: as §1

[8] = molecular target: T8, cynomolgus monkey FcγRIIIaS extracellular domain with C-terminal His-tag (cynomolgus monkey, UniProt A3RFZ7 21-206 (rhesus entry)); assay: SPR Biacore, antibody captured, FcgR analyte
T8 construct: also called cyno FcgRIIIaS; cynoFcγRIIIaS; not shown: His-tag added to C-terminus
Description: as §1

Binder | Kd [1] [µM] | Binding to cynoFcgRs (SG1 = 100) [2] | Binding to cynoFcgRs (SG1 = 100) [3] | Binding to cynoFcgRs (SG1 = 100) [4] | Binding to cynoFcgRs (SG1 = 100) [5] | Binding to cynoFcgRs (SG1 = 100) [6] | KD fold (SG1 = 1) [7] [fold] | KD fold (SG1 = 1) [8] [fold]
M103205H795-MY201/M103202L889-SK1 (antibody, human IgG1, kappa, Fc variant of MS1032LO06-SG1; also called MS1032LO06-MY201) heavy: QVTLKESGPVLVKPTETLTLTCTVSGIDLSHDDISWVRQAPGKGLEWVGIISYAGSTYYASWAKGRLTISKDTSKNQVVLTMTNMDPVDTATYYCARGVPAYSHGGDLWGQGTLVTVSSASTKGPSVFPLAPSSKSTSGGTAALGCLVKDYFPEPVTVSWNSGALTSGVHTFPAVLQSSGLYSLSSVVTVPSSSLGTQTYICNVNHKPSNTKVDKKVEPKSCDKTHTCPPCPAPELLNGPSVFLFPPKPKDTLMISRTPEVTCVVVDVSDEDPEVKFNWYVDGVEVHNAKTKPREEQYNSTYRVVSVLTVLHQDWLNGKEYKCKVSNKALPKPIEKTISKAKGQPREPQVYTLPPSREEMTKNQVSLTCLVKGFYPSDIAVEWESNGQPENNYKTTPPVLDSDGSFFLYSKLTVDKSRWQQGNVFSCSVMHEALHNHYTQKSLSLSP light: DIVMTQSPATLSLSPGERATLSCTSSQSVYHANWLSWFQQKPGQPPKLLIYWASTLAYGVPSRFSGSGSGTDFTLTISSLQPEDAATYYCAGGYGGGRYAFGQGTKVEIKRTVAAPSVFIFPPSDEQLKSGTASVVCLLNNFYPREAKVQWKVDNALQSGNSQESVTEQDSKDSTYSLSSTLTLSKADYEKHKVYACEVTHQGLSSPVTKSFNRGEC | 5.9 | – | – | – | – | – | – | –
M103205H795-SG171 / M103202L889-SK1 (antibody, human IgG1, kappa, name in EU numbering, also called S239P) heavy: not shown light: DIVMTQSPATLSLSPGERATLSCTSSQSVYHANWLSWFQQKPGQPPKLLIYWASTLAYGVPSRFSGSGSGTDFTLTISSLQPEDAATYYCAGGYGGGRYAFGQGTKVEIKRTVAAPSVFIFPPSDEQLKSGTASVVCLLNNFYPREAKVQWKVDNALQSGNSQESVTEQDSKDSTYSLSSTLTLSKADYEKHKVYACEVTHQGLSSPVTKSFNRGEC | – | 17 | 20 | 18 | 20 | – | – | –
M103205H795-SG166 / M103202L889-SK1 (antibody, human IgG1, kappa, name in EU numbering, also called G237D) heavy: not shown light: DIVMTQSPATLSLSPGERATLSCTSSQSVYHANWLSWFQQKPGQPPKLLIYWASTLAYGVPSRFSGSGSGTDFTLTISSLQPEDAATYYCAGGYGGGRYAFGQGTKVEIKRTVAAPSVFIFPPSDEQLKSGTASVVCLLNNFYPREAKVQWKVDNALQSGNSQESVTEQDSKDSTYSLSSTLTLSKADYEKHKVYACEVTHQGLSSPVTKSFNRGEC | – | 10 | 10 | 17 | – | 5 | – | –
M103205H795-MY201/M103202L889-SK1 (antibody, human IgG1, kappa, also called MS1032LO06-MY201) heavy: QVTLKESGPVLVKPTETLTLTCTVSGIDLSHDDISWVRQAPGKGLEWVGIISYAGSTYYASWAKGRLTISKDTSKNQVVLTMTNMDPVDTATYYCARGVPAYSHGGDLWGQGTLVTVSSASTKGPSVFPLAPSSKSTSGGTAALGCLVKDYFPEPVTVSWNSGALTSGVHTFPAVLQSSGLYSLSSVVTVPSSSLGTQTYICNVNHKPSNTKVDKKVEPKSCDKTHTCPPCPAPELLNGPSVFLFPPKPKDTLMISRTPEVTCVVVDVSDEDPEVKFNWYVDGVEVHNAKTKPREEQYNSTYRVVSVLTVLHQDWLNGKEYKCKVSNKALPKPIEKTISKAKGQPREPQVYTLPPSREEMTKNQVSLTCLVKGFYPSDIAVEWESNGQPENNYKTTPPVLDSDGSFFLYSKLTVDKSRWQQGNVFSCSVMHEALHNHYTQKSLSLSP light: DIVMTQSPATLSLSPGERATLSCTSSQSVYHANWLSWFQQKPGQPPKLLIYWASTLAYGVPSRFSGSGSGTDFTLTISSLQPEDAATYYCAGGYGGGRYAFGQGTKVEIKRTVAAPSVFIFPPSDEQLKSGTASVVCLLNNFYPREAKVQWKVDNALQSGNSQESVTEQDSKDSTYSLSSTLTLSKADYEKHKVYACEVTHQGLSSPVTKSFNRGEC | – | – | – | – | – | – | 4.7 | –
M103205H795-SG175 / M103202L889-SK1 (antibody, human IgG1, kappa, name in EU numbering, also called N325F) heavy: not shown light: DIVMTQSPATLSLSPGERATLSCTSSQSVYHANWLSWFQQKPGQPPKLLIYWASTLAYGVPSRFSGSGSGTDFTLTISSLQPEDAATYYCAGGYGGGRYAFGQGTKVEIKRTVAAPSVFIFPPSDEQLKSGTASVVCLLNNFYPREAKVQWKVDNALQSGNSQESVTEQDSKDSTYSLSSTLTLSKADYEKHKVYACEVTHQGLSSPVTKSFNRGEC | – | 13 | 13 | 17 | 14 | – | – | –
M103205H795-MY205/M103202L889-SK1 (antibody, human IgG1, kappa, also called MS1032LO06-MY205) heavy: QVTLKESGPVLVKPTETLTLTCTVSGIDLSHDDISWVRQAPGKGLEWVGIISYAGSTYYASWAKGRLTISKDTSKNQVVLTMTNMDPVDTATYYCARGVPAYSHGGDLWGQGTLVTVSSASTKGPSVFPLAPSSKSTSGGTAALGCLVKDYFPEPVTVSWNSGALTSGVHTFPAVLQSSGLYSLSSVVTVPSSSLGTQTYICNVNHKPSNTKVDKKVEPKSCDKTHTCPPCPAPELLNGPSVFLFPPKPKDTLMISRTPEVTCVVVDVSDEDPEVKFNWYVDGVEVHNAKTKPREELYNSTYRVVSVLTVLHQDWLNGKEYKCKVSNKALPKPIEKTISKAKGQPREPQVYTLPPSREEMTKNQVSLTCLVKGFYPSDIAVEWESNGQPENNYKTTPPVLDSDGSFFLYSKLTVDKSRWQQGNVFSCSVMHEALHNHYTQKSLSLSP light: DIVMTQSPATLSLSPGERATLSCTSSQSVYHANWLSWFQQKPGQPPKLLIYWASTLAYGVPSRFSGSGSGTDFTLTISSLQPEDAATYYCAGGYGGGRYAFGQGTKVEIKRTVAAPSVFIFPPSDEQLKSGTASVVCLLNNFYPREAKVQWKVDNALQSGNSQESVTEQDSKDSTYSLSSTLTLSKADYEKHKVYACEVTHQGLSSPVTKSFNRGEC | – | – | – | – | – | – | 8.7 | 0.08
M103205H795-MY001 / M103202L889-SK1 (antibody, human IgG1, kappa, name in EU numbering, also called G236N) heavy: not shown light: DIVMTQSPATLSLSPGERATLSCTSSQSVYHANWLSWFQQKPGQPPKLLIYWASTLAYGVPSRFSGSGSGTDFTLTISSLQPEDAATYYCAGGYGGGRYAFGQGTKVEIKRTVAAPSVFIFPPSDEQLKSGTASVVCLLNNFYPREAKVQWKVDNALQSGNSQESVTEQDSKDSTYSLSSTLTLSKADYEKHKVYACEVTHQGLSSPVTKSFNRGEC | – | 83 | 86 | 62 | 85 | 15 | – | –
M103205H795-SG165 / M103202L889-SK1 (antibody, human IgG1, kappa, name in EU numbering, also called G237Y) heavy: not shown light: DIVMTQSPATLSLSPGERATLSCTSSQSVYHANWLSWFQQKPGQPPKLLIYWASTLAYGVPSRFSGSGSGTDFTLTISSLQPEDAATYYCAGGYGGGRYAFGQGTKVEIKRTVAAPSVFIFPPSDEQLKSGTASVVCLLNNFYPREAKVQWKVDNALQSGNSQESVTEQDSKDSTYSLSSTLTLSKADYEKHKVYACEVTHQGLSSPVTKSFNRGEC | – | 18 | 17 | 30 | 30 | 7 | – | –
